Measurements: patent publication US20180364250

Molecular target: ubiquitin-D77

B1: YUH1 (protein)
chain: MSGENRAVVPIESNPEVFTNFAHKLGLKNEWAYFDIYSLTEPELLAFLPRPVKAIVLLFPINEDRKSSTSQQITSSYDVIWFKQSVKNACGLYAILHSLSNNQSLLEPGSDLDNFLKSQSDTSSSKNRFDDVTTDQFVLNVIKENVQTFSTGQSEAPEATADTNLHYITYVEENGGIFELDGRNLSGPLYLGKSDPTATDLIEQELVRVRVASYMENANEEDVLNFAMLGLGPNWE
- fluorescence intensity over time (real-time deubiquitinase assay with 500 nM ubiquitin-D77, 10 nM fluorescein-tagged ubiquitin, 10 nM tIVR): Activity of YUH1 released ubiquitin proteins from conjugation to aspartic acid (i.e., the D77 residue), and thus increased the concentration of free ubiquitin protein
